Source: US20220411531A1 (SUMGEN MAB BEIJING BIOTECH, published 2022)

Target: T1, TYRO3-Fc (ACRO Biosystems) (UniProt Q06418 41-428, limits assumed)
T1 construct: Bought reagent; also called TRYO3; not shown: Fc part
T1 sequence (looked up): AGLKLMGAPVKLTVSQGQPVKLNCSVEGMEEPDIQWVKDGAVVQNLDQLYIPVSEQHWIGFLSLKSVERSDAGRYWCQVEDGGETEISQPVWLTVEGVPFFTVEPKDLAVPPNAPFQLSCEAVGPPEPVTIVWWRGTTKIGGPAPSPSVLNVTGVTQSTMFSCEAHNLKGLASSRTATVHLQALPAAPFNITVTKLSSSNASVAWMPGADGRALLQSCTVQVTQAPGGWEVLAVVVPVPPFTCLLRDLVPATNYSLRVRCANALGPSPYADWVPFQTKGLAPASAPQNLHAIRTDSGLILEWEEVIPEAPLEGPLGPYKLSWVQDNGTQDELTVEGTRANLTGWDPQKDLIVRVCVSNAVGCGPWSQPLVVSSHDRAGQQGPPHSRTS
Test: ELISA, TYRO3-Fc coated at 1 µg/ml, anti-human IgG Fab-HRP, OD450
Experimental: TYRO3-Fc (ACRO Biosystems), MER-His (ACRO Biosystems), and AXL-His (Sino Biological Inc.) each were coated at 1 μg/ml on an ELISA strip, which was held at 4° C. overnight. After the ELISA strips were washed with PBST, 10% fetal bovine serum was added to the ELISA strip, which was blocked for 1 hour at 37° C. Antibodies […], 6G12M21, 6G12M31 and 6G12M41 were added to react at 37° C. for 1 hour. After the ELISA strips were washed with PBST, horseradish peroxidase-labeled goat anti-human IgG Fab secondary antibodies (Goat Anti-Human IgG (Fab′)₂ (HRP), Abcam) were added to react for 30 minutes at 37° C. The ELISA strips were washed 5 times with PBST, and patted and dried on absorbent paper to remove residual droplets as much as possible. 100 μl of TMB (eBioscience, #85-00-420) was added to each well, and the ELISA strips were held for 1.5 min at room temperature (20±5° C.) in the dark. 100 μl of 2N H₂SO₄ stop solution was added to each well to terminate substrate reaction. The OD value was read at 450 nm by a microplate reader to analyze the binding ability of antibodies to the proteins.

B1: antibody 6G12M11 (antibody, human IgG1, kappa, V domains shown)
VH: QVQLVQSGPGLVKPSQSLSLTCAVTGFSISSGYYWNWIRQFPGQKLEWMGYRSYDGSNNYNPSLKNRISITRDTSKNQFFLKLNSVTSEDTATYYCARGWLLHYTMDYWGQGTTVTVSS
VL: EIVMTQSPSSVSVTLGQSASISCRSSRSLLHSNGFTYLYWYLQKPGQSPQLLIYQMSNLASGVPDRFSGSGSGTDFTLKISRVEAEDVGVYYCGQNLELPLTFGGGTKLEIKR
  binding result: no binding (tested: about 1 µg/mL)
